Biological target: V5-HSP70 (UniProt P0DMV8)
Assay: co-IP

Chain of UniProt P0DMV8 (P0DMV8 whole entry): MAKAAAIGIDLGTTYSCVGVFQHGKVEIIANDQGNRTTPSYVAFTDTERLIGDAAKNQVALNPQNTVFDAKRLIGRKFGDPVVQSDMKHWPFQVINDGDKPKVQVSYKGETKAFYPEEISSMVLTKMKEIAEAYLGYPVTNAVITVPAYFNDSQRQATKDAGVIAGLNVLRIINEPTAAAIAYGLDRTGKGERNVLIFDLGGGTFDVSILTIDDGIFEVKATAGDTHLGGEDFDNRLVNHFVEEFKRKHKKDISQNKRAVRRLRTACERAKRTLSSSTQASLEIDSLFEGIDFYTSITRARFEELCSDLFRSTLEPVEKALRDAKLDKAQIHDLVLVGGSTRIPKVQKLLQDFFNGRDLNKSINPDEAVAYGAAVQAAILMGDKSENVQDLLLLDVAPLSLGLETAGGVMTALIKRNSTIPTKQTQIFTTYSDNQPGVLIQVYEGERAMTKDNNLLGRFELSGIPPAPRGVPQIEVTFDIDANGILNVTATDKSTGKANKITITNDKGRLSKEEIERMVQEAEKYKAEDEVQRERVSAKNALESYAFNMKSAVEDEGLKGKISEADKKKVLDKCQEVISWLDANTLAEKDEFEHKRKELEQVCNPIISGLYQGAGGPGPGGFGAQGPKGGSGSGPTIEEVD

decrease of the association relative to WT BAG3: > 50%
Substance: BAG3 with L462P mutation (pCDH-L462P BAG3) (from UniProt O95817 1-575) (natural protein)

Source: paper PMC9085972
